Results on two proteins are retold here after publication PMC7714070, “The role of the cytoskeletal proteins MreB and FtsZ in multicellular cyanobacteria” (FEBS Open Bio, 2020).

This series concerns the molecule itself. Kind of series: in vitro polymerisation seen by epifluorescence microscopy; Ni-NTA-purified FtsZ-His labelled with NHS-Fluorescein, in FtsZ polymerization buffer (50 mM MES, 50 mM KCl, 10 mM MgCl2, 2 mM GTP, pH 6.5), 40 min at 30 °C.

B1: Polyhistidine tagged FtsZ from Anabaena sp. PCC 7120 (natural protein, UniProt P45482 1-428, looked up)
chain: MTLDNNQELTYRNSQSLGQPGFSLAVNSSNPFNHSGLNFGQNNDSKKISVENNRIGEIVPGRVANIKVIGVGGGGGNAVNRMIESDVSGVEFWSINTDAQALTLAGAPSRLQIGQKLTRGLGAGGNPAIGQKAAEESRDEIATALEGADLVFITAGMGGGTGTGAAPIVAEVAKEMGALTVGVVTRPFVFEGRRRTSQAEQGIEGLKSRVDTLIIIPNNKLLEVIPEQTPVQEAFRYADDVLRQGVQGISDIITIPGLVNVDFADVRAVMADAGSALMGIGVSSGKSRAREAAIAAISSPLLECSIEGARGVVFNITGGSDLTLHEVNAAAETIYEVVDPNANIIFGAVIDDRLQGEVRITVIATGFTGEIQAAPQQNAANARVVSAPPKRTPTQTPLTNSPAPTPEPKEKSGLDIPDFLQRRRPPKN
modifications: labelled with NHS-Fluorescein
notes: FtsZ of Anabaena sp; PCC 7120; also called FtsZAna-His; FtsZ-His; source: E. coli BL21 (DE3), purified (Ni-NTA)
With B1, the binding result was “binds”.

B2: Polyhistidine tagged FtsZ from Fischerella muscicola PCC 7414 (natural protein, UniProt A0A2N6JXP9 1-430, looked up)
chain: MTLDNNQGLTYKNSQSPGQSTFSLAVNSTNPFNHSGLSFGQNNDSKKIEREETRIGDIVPGRVANIKVIGVGGGGSNAVNRMIASDVSGVEFWSINTDAQALTLAAAPSRLQIGQKLTRGLGAGGNPAIGTKAAEESRDEIATALDGADLVFITAGMGGGTGTGAAPIVAEVAKEMGALTVGVVTRPFIFEGRRRISQAEQGIEGLKSRVDTLIIIPNNKLLEVIPEQTPMQEAFRYADDVLRQGVQGISDIITIPGLINVDFADVRAVMADAGSALMGIGIGSGKSRAREAAIAAISSPLLECSIEGARGVVFNITGGSDLTLHEVNAAAETIYEVVDPNANIIFGAVIDDRLQGEVRLTVIATGFTGEAPAAQQSNVTQGRVVQPPPQRRPMQQPPAPNPPTQTPEPKEKGSVLDIPDFLRKRTPPRN
modifications: labelled with NHS-Fluorescein
notes: FtsZ of Fischerella muscicola PCC 7414; also called FtsZFm-His; FtsZ-His; source: E. coli BL21 (DE3), purified (Ni-NTA)
Turning to B2, the binding result is on record as “binds”.
